We go through 3 substances from article PMC6150519.

The target in assay [1] is GIRK1/2-CFP.
The target in assay [2] is GIRK1/2-CFP. The source holds these as a separate data set.
Assay [3] has as its target GIRK1/2-CFP. Description: FRET or BRET; acceptor bleaching under TIRF illumination in living HEK293T cells co-transfected with receptor-YFP (or prestin-YFP) and GIRK1/2-CFP; G protein subunits not additionally transfected; absence or presence of oxo-M (10 uM). (In BRET a luciferase serves as donor, and the signal depends on an acceptor being close.)

In the assay with GIRK1/2-CFP [1], “M1R-YFP (from UniProt P04761 1-460) (receptor)” gave an agonist-induced GIRK channel current density (ΔImax), oxo-M 10 uM, tandem constructs M1R-YFP-34/100/265-GIRK1/2, PTX (-); decreased with the increase in the linker length of 11.3 pA/pF.

“M2R-YFP (from UniProt P06199 1-466) (receptor)” had an agonist-induced GIRK channel current density (ΔImax), oxo-M 10 uM, tandem constructs M2R-YFP-100/265/535-GIRK1/2, PTX (-); not changed with the increases in the linker length in the assay with GIRK1/2-CFP [2] of 62 pA/pF.

“receptor-YFP with the long chain in the middle of M2R-i3 (K221-P379) replaced with SGGGS”: the FRET efficiency with GIRK1/2-CFP [3] stood at 5.5%.
